Our source for the binding values is article PMC4335029.

The series deals with T1, VexR-MBP (Vibrio cholerae O1 El Tor N16961) (UniProt Q9KVI0).
T1 sequence: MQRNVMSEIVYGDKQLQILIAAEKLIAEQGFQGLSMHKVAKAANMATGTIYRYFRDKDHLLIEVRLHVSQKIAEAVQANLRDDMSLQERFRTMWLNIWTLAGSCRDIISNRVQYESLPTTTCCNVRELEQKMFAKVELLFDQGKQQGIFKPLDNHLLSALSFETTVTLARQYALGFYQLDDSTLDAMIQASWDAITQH
The series can be described thus: EMSA. Background: In EMSA bound probe runs differently from free probe, usually more slowly.

In the case of “GCGGGAGTCGGCAGCGATAATAATCCGCTCACCGAGGATTACCAACAAAGAAACTGCCTTTACAAAAATTTACTGCACAAGTGTATTGCAAAACAGGGGCGCTGCCGACTCCCGC (double strand) [vexR1]”, the binding result is recorded as “no binding”.
The value for “GCGGGAGTCGGCAGCGGCCGTACACTATTTCAGACATCACATTTCTCTGCAAATGAACGGTTGTTCATTATAGCGGCTAATACCCCCTGTTTTGCACGCTGCCGACTCCCGC (double strand) [vexR2]” was “binds”.
